The values below come from patent publication US5180667A, “Genes encoding eglin C mutants” (Ciba-Geigy Corporation, priority 1988, dated 1993).

The target of this test is trypsin. The test is described as follows: Inhibition constant Ki, steady-state release of p-nitroaniline, trypsin. The class given is biochemical. The settings on record: only inhibitor concentration varied. The method, then:
The determination of the inhibition constants Ki is carried out according to N. Braun et al. [Biol. Chem. Hoppe-Seyler 368, 299-308 (1987)] by measuring the steady-state reaction rate of the release of p-nitroaniline from proteinase-inhibitor substrate mixtures. Only the inhibitor concentration is varied. Since the curve OD405 vs. time was linear, the release of p-nitroaniline is entered at 10 to 20 minutes. Ki can be determined from the various slopes. The proteinases used are human leukocyte elastase (HLE), chymotrypsin and trypsin.

B1: Eglin C (protein, UniProt P01051 1-70, looked up)
Eglin C: TEFGSELKSFPEVVGKTVDQAREYFTLHYPQYDVYFLPEGSPVTLDLRYNRVRVFYNPGTNVVNHVPHVG
In the case of B1, the “Inhibition constants, trypsin Ki (M)” value is given as “no inhibition”.
